Measurements reported in patent US20260167699A1 (Chugai, published 2026).

T1: FcγRIIa(R) (human, UniProt P12318 34-217)
T1 construct: extracellular domain; also called FcγRIIa R type; 2aR
T1 sequence: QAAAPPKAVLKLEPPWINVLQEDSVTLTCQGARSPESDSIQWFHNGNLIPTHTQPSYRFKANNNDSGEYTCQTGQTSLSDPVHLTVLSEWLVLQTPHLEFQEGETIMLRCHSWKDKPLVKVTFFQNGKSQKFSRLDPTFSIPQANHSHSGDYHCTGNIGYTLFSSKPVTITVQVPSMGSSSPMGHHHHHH

T2: FcγRIIa(H) (human, UniProt P12318 34-217)
T2 construct: extracellular domain; also called FcγRIIa H type; 2aH
T2 sequence: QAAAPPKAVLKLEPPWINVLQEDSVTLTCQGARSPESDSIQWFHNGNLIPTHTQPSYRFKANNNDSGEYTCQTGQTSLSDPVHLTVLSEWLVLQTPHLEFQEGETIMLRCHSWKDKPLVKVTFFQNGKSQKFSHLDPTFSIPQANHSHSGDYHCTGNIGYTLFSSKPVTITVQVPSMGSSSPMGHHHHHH

T3: FcγRIIb (human, UniProt P31994 43-217)
T3 construct: extracellular domain; also called 2b
T3 sequence: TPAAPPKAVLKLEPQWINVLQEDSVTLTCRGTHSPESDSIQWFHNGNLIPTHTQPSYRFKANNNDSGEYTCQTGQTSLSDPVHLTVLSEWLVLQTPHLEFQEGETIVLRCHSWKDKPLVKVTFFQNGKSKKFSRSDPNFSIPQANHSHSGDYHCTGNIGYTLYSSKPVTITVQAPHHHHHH


Legend:
Experiment in all cases: SPR (Biacore), binding relative to GpH7-A5/GpH7-B3/GpL16-k0 x100;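 note: surface plasmon resonance at 25 °C, antibody captured on a sensor chip and soluble FcγR flowed over it in HBS-EP+ running buffer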
FcγRIIa(R) = target: T1, FcγRIIa(R)
Description: (§1) The antibody of interest was analyzed for its interaction with FcγR using a BiaCore™ T100, BiaCore™ A100, or BiaCore™ 4000 surface plasmon resonance system (GE Healthcare Japan Corp.). The running buffer used was HBS-EP+ (GE Healthcare Japan Corp.). The assay temperature was set to 25° C. The sensor chips used were: a chip prepared by immobilizing antigenic peptides onto Series S Sensor Chip CM5 (GE Healthcare Japan Corp.) by the amine coupling method; a chip prepared by immobilizing antigenic peptides biotinylated in advance onto Series S Sensor Chip SA (certified) (GE Healthcare Japan Corp.) through their interaction; a chip prepared by immobilizing protein L (ACTIGEN, BioVision, Inc.) onto Series S Sensor Chip CM5 (GE Healthcare Japan Corp.); and a chip prepared by immobilizing protein A/G (Thermo Fisher Scientific K.K.) onto Series S Sensor Chip CM5 (GE Healthcare Japan Corp.). The antibody of interest was captured onto any of these chips and allowed to interact with FcγR diluted with a running buffer. The antibody captured on the chip was washed off through the reaction of 10 mM glycine-HCl (pH 1.5) to regenerate the chip, which was repetitively used.

FcγRIIa(H) = target: T2, FcγRIIa(H)
Description: as §1

FcγRIa = target: T4, FcγRIa (human, UniProt P12314 16-292)
T4 construct: extracellular domain; also called 1a
Description: as §1

FcγRIIb = target: T3, FcγRIIb
Description: as §1

T4 sequence (P12314 other isoform, or with tags, fused parts or gaps): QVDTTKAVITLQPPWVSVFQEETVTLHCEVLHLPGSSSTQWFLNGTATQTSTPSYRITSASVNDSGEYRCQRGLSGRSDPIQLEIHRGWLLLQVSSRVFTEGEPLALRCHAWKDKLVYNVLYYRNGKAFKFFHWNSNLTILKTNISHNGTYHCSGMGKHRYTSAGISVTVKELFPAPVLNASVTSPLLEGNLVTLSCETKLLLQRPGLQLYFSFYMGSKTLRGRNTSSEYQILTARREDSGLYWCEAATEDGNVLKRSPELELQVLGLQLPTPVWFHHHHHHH

He/Con 2aR (FcγRIIa(R)) [%]	He/Con 2aH (FcγRIIa(H)) [%]	He/Con 1a (FcγRIa) [%]	He/Con 2b (FcγRIIb) [%]	Binder
79	76.4	100	76.2	GpH7-A5/GpH7-B3 variant P271_16H/GpL16-k0 (antibody, human IgG1, kappa, heterodimerized IgG1, one H chain mutated; also called He Ab) heavy 1: not shown heavy 2: not shown light: DIVMTQSPLSLPVTPGEPASISCQASESLVHSNRNTYLHWYLQKPGQSPQLLIYKVSNRFSGVPDRFSGSGSGTDFTLKISRVEAEDVGVYYCSQNTHVPPTFGQGTKVEIERTVAAPSVFIFPPSDEQLKSGTASVVCLLNNFYPREAKVQWKVDNALQSGNSQESVTEQDSKDSTYSLSSTLTLSKADYEKHKVYACEVTHQGLSSPVTKSFNRGEC
97.8	54.5	101	112	GpH7-A5/GpH7-B3 variant P238_19Q/GpL16-k0 (antibody, human IgG1, kappa, heterodimerized IgG1, one H chain mutated; also called He Ab) heavy 1: not shown heavy 2: not shown light: DIVMTQSPLSLPVTPGEPASISCQASESLVHSNRNTYLHWYLQKPGQSPQLLIYKVSNRFSGVPDRFSGSGSGTDFTLKISRVEAEDVGVYYCSQNTHVPPTFGQGTKVEIERTVAAPSVFIFPPSDEQLKSGTASVVCLLNNFYPREAKVQWKVDNALQSGNSQESVTEQDSKDSTYSLSSTLTLSKADYEKHKVYACEVTHQGLSSPVTKSFNRGEC
70	74	101	58.6	GpH7-A5/GpH7-B3 variant P271_15Y/GpL16-k0 (antibody, human IgG1, kappa, heterodimerized IgG1, one H chain mutated; also called He Ab) heavy 1: not shown heavy 2: not shown light: DIVMTQSPLSLPVTPGEPASISCQASESLVHSNRNTYLHWYLQKPGQSPQLLIYKVSNRFSGVPDRFSGSGSGTDFTLKISRVEAEDVGVYYCSQNTHVPPTFGQGTKVEIERTVAAPSVFIFPPSDEQLKSGTASVVCLLNNFYPREAKVQWKVDNALQSGNSQESVTEQDSKDSTYSLSSTLTLSKADYEKHKVYACEVTHQGLSSPVTKSFNRGEC
120	93.8	104	146	GpH7-A5/GpH7-B3 variant S239_01G/GpL16-k0 (antibody, human IgG1, kappa, heterodimerized IgG1, one H chain mutated; also called He Ab) heavy 1: not shown heavy 2: not shown light: DIVMTQSPLSLPVTPGEPASISCQASESLVHSNRNTYLHWYLQKPGQSPQLLIYKVSNRFSGVPDRFSGSGSGTDFTLKISRVEAEDVGVYYCSQNTHVPPTFGQGTKVEIERTVAAPSVFIFPPSDEQLKSGTASVVCLLNNFYPREAKVQWKVDNALQSGNSQESVTEQDSKDSTYSLSSTLTLSKADYEKHKVYACEVTHQGLSSPVTKSFNRGEC
89.8	89.9	103	91.6	GpH7-A5/GpH7-B3 variant S239_02A/GpL16-k0 (antibody, human IgG1, kappa, heterodimerized IgG1, one H chain mutated; also called He Ab) heavy 1: not shown heavy 2: not shown light: DIVMTQSPLSLPVTPGEPASISCQASESLVHSNRNTYLHWYLQKPGQSPQLLIYKVSNRFSGVPDRFSGSGSGTDFTLKISRVEAEDVGVYYCSQNTHVPPTFGQGTKVEIERTVAAPSVFIFPPSDEQLKSGTASVVCLLNNFYPREAKVQWKVDNALQSGNSQESVTEQDSKDSTYSLSSTLTLSKADYEKHKVYACEVTHQGLSSPVTKSFNRGEC
75.2	77.1	100	66.7	GpH7-A5/GpH7-B3 variant P271_04F/GpL16-k0 (antibody, human IgG1, kappa, heterodimerized IgG1, one H chain mutated; also called He Ab) heavy 1: not shown heavy 2: not shown light: DIVMTQSPLSLPVTPGEPASISCQASESLVHSNRNTYLHWYLQKPGQSPQLLIYKVSNRFSGVPDRFSGSGSGTDFTLKISRVEAEDVGVYYCSQNTHVPPTFGQGTKVEIERTVAAPSVFIFPPSDEQLKSGTASVVCLLNNFYPREAKVQWKVDNALQSGNSQESVTEQDSKDSTYSLSSTLTLSKADYEKHKVYACEVTHQGLSSPVTKSFNRGEC
94.7	69.8	101	107	GpH7-A5/GpH7-B3 variant P271_14T/GpL16-k0 (antibody, human IgG1, kappa, heterodimerized IgG1, one H chain mutated; also called He Ab) heavy 1: not shown heavy 2: not shown light: DIVMTQSPLSLPVTPGEPASISCQASESLVHSNRNTYLHWYLQKPGQSPQLLIYKVSNRFSGVPDRFSGSGSGTDFTLKISRVEAEDVGVYYCSQNTHVPPTFGQGTKVEIERTVAAPSVFIFPPSDEQLKSGTASVVCLLNNFYPREAKVQWKVDNALQSGNSQESVTEQDSKDSTYSLSSTLTLSKADYEKHKVYACEVTHQGLSSPVTKSFNRGEC
147	57.8	104	221	GpH7-A5/GpH7-B3 variant P238_15Y/GpL16-k0 (antibody, human IgG1, kappa, heterodimerized IgG1, one H chain mutated; also called He Ab) heavy 1: not shown heavy 2: not shown light: DIVMTQSPLSLPVTPGEPASISCQASESLVHSNRNTYLHWYLQKPGQSPQLLIYKVSNRFSGVPDRFSGSGSGTDFTLKISRVEAEDVGVYYCSQNTHVPPTFGQGTKVEIERTVAAPSVFIFPPSDEQLKSGTASVVCLLNNFYPREAKVQWKVDNALQSGNSQESVTEQDSKDSTYSLSSTLTLSKADYEKHKVYACEVTHQGLSSPVTKSFNRGEC

Second part, the binder before the results:

Binder	He/Con 2aR (FcγRIIa(R)) [%]	He/Con 2aH (FcγRIIa(H)) [%]	He/Con 1a (FcγRIa) [%]	He/Con 2b (FcγRIIb) [%]
GpH7-A5/GpH7-B3 variant L235_16H/GpL16-k0 (antibody, human IgG1, kappa, heterodimerized IgG1, one H chain mutated; also called He Ab) heavy 1: not shown heavy 2: not shown light: DIVMTQSPLSLPVTPGEPASISCQASESLVHSNRNTYLHWYLQKPGQSPQLLIYKVSNRFSGVPDRFSGSGSGTDFTLKISRVEAEDVGVYYCSQNTHVPPTFGQGTKVEIERTVAAPSVFIFPPSDEQLKSGTASVVCLLNNFYPREAKVQWKVDNALQSGNSQESVTEQDSKDSTYSLSSTLTLSKADYEKHKVYACEVTHQGLSSPVTKSFNRGEC	110	99.8	92.7	87.8
GpH7-A5/GpH7-B3 variant P238_10E/GpL16-k0 (antibody, human IgG1, kappa, heterodimerized IgG1, one H chain mutated; also called He Ab) heavy 1: not shown heavy 2: not shown light: DIVMTQSPLSLPVTPGEPASISCQASESLVHSNRNTYLHWYLQKPGQSPQLLIYKVSNRFSGVPDRFSGSGSGTDFTLKISRVEAEDVGVYYCSQNTHVPPTFGQGTKVEIERTVAAPSVFIFPPSDEQLKSGTASVVCLLNNFYPREAKVQWKVDNALQSGNSQESVTEQDSKDSTYSLSSTLTLSKADYEKHKVYACEVTHQGLSSPVTKSFNRGEC	142	74.6	105	235
GpH7-A5/GpH7-B3 variant P238_09D/GpL16-k0 (antibody, human IgG1, kappa, heterodimerized IgG1, one H chain mutated; also called He Ab) heavy 1: not shown heavy 2: not shown light: DIVMTQSPLSLPVTPGEPASISCQASESLVHSNRNTYLHWYLQKPGQSPQLLIYKVSNRFSGVPDRFSGSGSGTDFTLKISRVEAEDVGVYYCSQNTHVPPTFGQGTKVEIERTVAAPSVFIFPPSDEQLKSGTASVVCLLNNFYPREAKVQWKVDNALQSGNSQESVTEQDSKDSTYSLSSTLTLSKADYEKHKVYACEVTHQGLSSPVTKSFNRGEC	140	84.7	99	224
GpH7-A5/GpH7-B3 variant L235_20W/GpL16-k0 (antibody, human IgG1, kappa, heterodimerized IgG1, one H chain mutated; also called He Ab) heavy 1: not shown heavy 2: not shown light: DIVMTQSPLSLPVTPGEPASISCQASESLVHSNRNTYLHWYLQKPGQSPQLLIYKVSNRFSGVPDRFSGSGSGTDFTLKISRVEAEDVGVYYCSQNTHVPPTFGQGTKVEIERTVAAPSVFIFPPSDEQLKSGTASVVCLLNNFYPREAKVQWKVDNALQSGNSQESVTEQDSKDSTYSLSSTLTLSKADYEKHKVYACEVTHQGLSSPVTKSFNRGEC	152	131	95.9	168
GpH7-A5/GpH7-B3 variant P238_08L/GpL16-k0 (antibody, human IgG1, kappa, heterodimerized IgG1, one H chain mutated; also called He Ab) heavy 1: not shown heavy 2: not shown light: DIVMTQSPLSLPVTPGEPASISCQASESLVHSNRNTYLHWYLQKPGQSPQLLIYKVSNRFSGVPDRFSGSGSGTDFTLKISRVEAEDVGVYYCSQNTHVPPTFGQGTKVEIERTVAAPSVFIFPPSDEQLKSGTASVVCLLNNFYPREAKVQWKVDNALQSGNSQESVTEQDSKDSTYSLSSTLTLSKADYEKHKVYACEVTHQGLSSPVTKSFNRGEC	132	81.8	104	207
GpH7-A5/GpH7-B3 variant L235_18N/GpL16-k0 (antibody, human IgG1, kappa, heterodimerized IgG1, one H chain mutated; also called He Ab) heavy 1: not shown heavy 2: not shown light: DIVMTQSPLSLPVTPGEPASISCQASESLVHSNRNTYLHWYLQKPGQSPQLLIYKVSNRFSGVPDRFSGSGSGTDFTLKISRVEAEDVGVYYCSQNTHVPPTFGQGTKVEIERTVAAPSVFIFPPSDEQLKSGTASVVCLLNNFYPREAKVQWKVDNALQSGNSQESVTEQDSKDSTYSLSSTLTLSKADYEKHKVYACEVTHQGLSSPVTKSFNRGEC	77.3	73.5	95.2	62.7
